Measurements as given in patent EP4086284A1 (Emergence Therapeutics AG, dated 2022).

Molecular target: T1, Nectin-4 extracellular domain Fc fusion recombinant protein (Nec4-VCC) (human, UniProt Q96NY8 32-349)
T1 construct: extracellular domain; also called Nectin-4-VCC-Fc; not shown: Fc part
T1 sequence (looked up): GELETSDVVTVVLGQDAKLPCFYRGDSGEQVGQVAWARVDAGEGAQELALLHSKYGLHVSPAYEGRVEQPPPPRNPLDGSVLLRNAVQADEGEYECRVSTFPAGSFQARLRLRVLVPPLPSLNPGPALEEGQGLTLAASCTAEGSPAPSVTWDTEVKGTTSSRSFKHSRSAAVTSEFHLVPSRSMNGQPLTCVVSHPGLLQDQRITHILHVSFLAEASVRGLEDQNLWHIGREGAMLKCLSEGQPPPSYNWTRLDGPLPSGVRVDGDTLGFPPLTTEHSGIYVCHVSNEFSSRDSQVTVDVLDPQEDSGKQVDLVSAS
Test: statement in the legend of the competition ELISA on Nec4-VCC

binding result: binds
B1: Enfortumab (HA22) (antibody, V domains shown)
VH: EVQLVESGGGLVQPGGSLRLSCAASGFTFSSYNMNWVRQAPGKGLEWVSYISSSSSTIYYADSVKGRFTISRDNAKNSLSLQMNSLRDEDTAVYYCARAYYYGMDVWGQGTTVTVSS
VL: DIQMTQSPSSVSASVGDRVTITCRASQGISGWLAWYQQKPGKAPKFLIYAASTLQSGVPSRFSGSGSGTDFTLTISSLQPEDFATYYCQQANSFPPTFGGGTKVEIK
notes: also called HA22 mAb
